Assays:
[1] = target: T1, Programmed Death 1 (PD-1) (UniProt Q15116 25-167, limits assumed); assay: rank among the 16 humanized clones by FACS binding data
[2] = target: T1, Programmed Death 1 (PD-1); assay: rank in competition binding against labelled murine mAb BAP049, 1st experiment
[3] = target: T1, Programmed Death 1 (PD-1); assay: rank in competition binding against labelled murine mAb BAP049, 2nd experiment
[4] = target: T1, Programmed Death 1 (PD-1); assay: FACS ligand blocking: binding of PD-L1-Ig to PD-1 at increasing mAb concentration (legend paragraph 212 names 'PD-L1-Ig and PD-L2-Ig' for FIG. 8A)

T1 sequence (Q15116 25-167 limits assumed): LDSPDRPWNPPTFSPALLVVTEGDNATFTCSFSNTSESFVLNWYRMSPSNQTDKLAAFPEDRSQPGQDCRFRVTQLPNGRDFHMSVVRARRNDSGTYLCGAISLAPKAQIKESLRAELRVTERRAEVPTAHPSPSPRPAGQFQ

B1: BAP049-hum15 (antibody, human IgG4 S228P, kappa)
heavy chain: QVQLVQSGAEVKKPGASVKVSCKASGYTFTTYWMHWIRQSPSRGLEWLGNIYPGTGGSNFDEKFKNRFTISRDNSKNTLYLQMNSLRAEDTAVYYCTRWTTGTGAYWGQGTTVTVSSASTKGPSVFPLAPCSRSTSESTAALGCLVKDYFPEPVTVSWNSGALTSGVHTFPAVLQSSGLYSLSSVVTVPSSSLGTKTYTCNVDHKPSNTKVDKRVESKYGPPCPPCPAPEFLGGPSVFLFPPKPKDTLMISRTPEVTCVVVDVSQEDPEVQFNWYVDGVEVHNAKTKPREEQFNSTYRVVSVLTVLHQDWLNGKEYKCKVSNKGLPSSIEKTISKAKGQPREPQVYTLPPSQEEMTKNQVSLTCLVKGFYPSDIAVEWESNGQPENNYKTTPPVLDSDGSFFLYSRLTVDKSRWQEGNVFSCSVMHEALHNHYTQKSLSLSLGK
light chain: EIVLTQSPDFQSVTPKEKVTITCKSSQSLLDSGNQKNFLTWYQQKPGQAPRLLIYWASTRESGVPSRFSGSGSGTDFTFTISSLEAEDAATYYCQNDYSYPYTFGQGTKVEIKRTVAAPSVFIFPPSDEQLKSGTASVVCLLNNFYPREAKVQWKVDNALQSGNSQESVTEQDSKDSTYSLSSTLTLSKADYEKHKVYACEVTHQGLSSPVTKSFNRGEC
notes: also called clone 15
Ranking FACS data [1]: 6 rank | Competition Binding 1st exp. (rank) [2]: 7 rank | Competition Binding 2nd exp. (rank) [3]: 15 rank

B2: BAP049-hum11 (antibody, human IgG4 S228P, kappa)
heavy: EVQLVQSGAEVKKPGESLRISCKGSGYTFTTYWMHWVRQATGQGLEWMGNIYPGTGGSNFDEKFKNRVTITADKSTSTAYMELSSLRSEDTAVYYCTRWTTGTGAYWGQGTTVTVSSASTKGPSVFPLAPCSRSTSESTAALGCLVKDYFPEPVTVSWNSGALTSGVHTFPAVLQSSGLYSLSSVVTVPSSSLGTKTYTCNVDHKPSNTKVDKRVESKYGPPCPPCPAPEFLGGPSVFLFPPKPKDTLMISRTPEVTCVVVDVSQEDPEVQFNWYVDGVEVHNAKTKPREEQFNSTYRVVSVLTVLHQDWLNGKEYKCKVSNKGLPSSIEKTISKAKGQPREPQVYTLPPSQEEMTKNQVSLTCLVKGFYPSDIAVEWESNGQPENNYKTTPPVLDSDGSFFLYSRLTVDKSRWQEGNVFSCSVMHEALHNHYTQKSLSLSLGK
light: EIVLTQSPATLSLSPGERATLSCKSSQSLLDSGNQKNFLTWYQQKPGQAPRLLIYWASTRESGVPSRFSGSGSGTDFTFTISSLEAEDAATYYCQNDYSYPYTFGQGTKVEIKRTVAAPSVFIFPPSDEQLKSGTASVVCLLNNFYPREAKVQWKVDNALQSGNSQESVTEQDSKDSTYSLSSTLTLSKADYEKHKVYACEVTHQGLSSPVTKSFNRGEC
notes: Humanized mAb
Ranking FACS data [1]: 6 rank | Competition Binding 1st exp. (rank) [2]: 4 rank | Competition Binding 2nd exp. (rank) [3]: > 4 rank

B3: BAP049-hum06 (antibody, human IgG4 S228P, kappa)
heavy chain: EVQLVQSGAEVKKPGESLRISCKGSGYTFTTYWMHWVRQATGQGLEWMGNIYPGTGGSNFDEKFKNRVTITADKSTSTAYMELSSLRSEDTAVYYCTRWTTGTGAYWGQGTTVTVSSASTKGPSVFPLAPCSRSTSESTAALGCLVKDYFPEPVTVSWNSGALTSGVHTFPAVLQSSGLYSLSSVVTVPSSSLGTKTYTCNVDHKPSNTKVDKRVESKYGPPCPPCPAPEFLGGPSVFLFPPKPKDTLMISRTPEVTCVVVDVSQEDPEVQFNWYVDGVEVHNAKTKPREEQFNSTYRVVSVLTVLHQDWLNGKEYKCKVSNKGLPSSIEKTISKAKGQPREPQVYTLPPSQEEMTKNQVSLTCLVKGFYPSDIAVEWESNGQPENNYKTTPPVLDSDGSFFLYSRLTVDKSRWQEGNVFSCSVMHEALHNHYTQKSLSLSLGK
light chain: DIVMTQTPLSLPVTPGEPASISCKSSQSLLDSGNQKNFLTWYQQKPGQAPRLLIYWASTRESGVPSRFSGSGSGTDFTFTISSLEAEDAATYYCQNDYSYPYTFGQGTKVEIKRTVAAPSVFIFPPSDEQLKSGTASVVCLLNNFYPREAKVQWKVDNALQSGNSQESVTEQDSKDSTYSLSSTLTLSKADYEKHKVYACEVTHQGLSSPVTKSFNRGEC
notes: also called clone 6
Ranking FACS data [1]: 1 rank | Competition Binding 1st exp. (rank) [2]: 7 rank | Competition Binding 2nd exp. (rank) [3]: 3 rank

B4: BAP049-hum05 (antibody, human IgG4 S228P, kappa, V domains shown)
VH: EVQLVQSGAEVKKPGESLRISCKGSGYTFTTYWMHWVRQATGQGLEWMGNIYPGTGGSNFDEKFKNRVTITADKSTSTAYMELSSLRSEDTAVYYCTRWTTGTGAYWGQGTTVTVSS
VL: EIVLTQSPATLSLSPGERATLSCKSSQSLLDSGNQKNFLTWYQQKPGKAPKLLIYWASTRESGVPSRFSGSGSGTDFTFTISSLQPEDIATYYCQNDYSYPYTFGQGTKVEIKR
notes: Humanized mAb
Ranking FACS data [1]: 5 rank | Competition Binding 1st exp. (rank) [2]: 5 rank | Competition Binding 2nd exp. (rank) [3]: > 4 rank | IC50 (read off the curve) [4]: ~1 mg/L

B5: BAP049-hum09 (antibody, human IgG4 S228P, kappa)
heavy: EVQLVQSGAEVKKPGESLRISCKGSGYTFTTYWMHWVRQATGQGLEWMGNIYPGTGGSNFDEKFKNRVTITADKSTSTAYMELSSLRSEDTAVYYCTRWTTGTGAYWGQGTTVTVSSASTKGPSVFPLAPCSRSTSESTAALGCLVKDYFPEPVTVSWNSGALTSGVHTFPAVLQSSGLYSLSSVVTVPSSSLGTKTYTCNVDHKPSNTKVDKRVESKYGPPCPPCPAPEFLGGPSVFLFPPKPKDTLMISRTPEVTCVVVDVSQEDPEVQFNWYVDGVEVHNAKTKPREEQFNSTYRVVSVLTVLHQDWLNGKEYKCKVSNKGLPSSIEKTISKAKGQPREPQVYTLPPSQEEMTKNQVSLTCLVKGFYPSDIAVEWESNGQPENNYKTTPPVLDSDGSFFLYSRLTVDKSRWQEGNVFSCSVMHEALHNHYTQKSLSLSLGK
light: EIVLTQSPDFQSVTPKEKVTITCKSSQSLLDSGNQKNFLTWYQQKPGQAPRLLIYWASTRESGVPSRFSGSGSGTDFTFTISSLEAEDAATYYCQNDYSYPYTFGQGTKVEIKRTVAAPSVFIFPPSDEQLKSGTASVVCLLNNFYPREAKVQWKVDNALQSGNSQESVTEQDSKDSTYSLSSTLTLSKADYEKHKVYACEVTHQGLSSPVTKSFNRGEC
notes: Humanized mAb
Ranking FACS data [1]: 7 rank | Competition Binding 1st exp. (rank) [2]: 2 rank | Competition Binding 2nd exp. (rank) [3]: 4 rank

B6: BAP049-hum01 (antibody, human IgG4 S228P, kappa, V domains shown)
VH: EVQLVQSGAEVKKPGESLRISCKGSGYTFTTYWMHWVRQATGQGLEWMGNIYPGTGGSNFDEKFKNRVTITADKSTSTAYMELSSLRSEDTAVYYCTRWTTGTGAYWGQGTTVTVSS
VL: EIVLTQSPATLSLSPGERATLSCKSSQSLLDSGNQKNFLTWYQQKPGQAPRLLIYWASTRESGVPSRFSGSGSGTEFTLTISSLQPDDFATYYCQNDYSYPYTFGQGTKVEIKR
notes: Humanized mAb
Ranking FACS data [1]: 2 rank | Competition Binding 1st exp. (rank) [2]: 7 rank | Competition Binding 2nd exp. (rank) [3]: 2 rank | IC50 (read off the curve) [4]: ~1 mg/L

B7: BAP049-hum07 (antibody, human IgG4 S228P, kappa)
heavy chain: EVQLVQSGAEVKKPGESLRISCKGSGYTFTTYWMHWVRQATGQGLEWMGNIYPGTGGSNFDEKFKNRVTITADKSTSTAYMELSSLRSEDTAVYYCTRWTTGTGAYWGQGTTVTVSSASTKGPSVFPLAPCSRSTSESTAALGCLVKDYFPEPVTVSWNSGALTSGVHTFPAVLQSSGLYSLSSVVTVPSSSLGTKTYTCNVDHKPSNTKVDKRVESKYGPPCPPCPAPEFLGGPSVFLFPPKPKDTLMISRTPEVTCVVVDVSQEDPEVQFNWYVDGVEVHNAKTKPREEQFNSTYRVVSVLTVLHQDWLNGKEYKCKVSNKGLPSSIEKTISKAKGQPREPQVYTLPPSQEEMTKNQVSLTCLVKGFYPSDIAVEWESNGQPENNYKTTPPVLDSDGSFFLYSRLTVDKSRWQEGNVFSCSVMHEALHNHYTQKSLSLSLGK
light chain: EIVLTQSPATLSLSPGERATLSCKSSQSLLDSGNQKNFLTWYQQKPGKAPKLLIYWASTRESGVPSRFSGSGSGTDFTFTISSLEAEDAATYYCQNDYSYPYTFGQGTKVEIKRTVAAPSVFIFPPSDEQLKSGTASVVCLLNNFYPREAKVQWKVDNALQSGNSQESVTEQDSKDSTYSLSSTLTLSKADYEKHKVYACEVTHQGLSSPVTKSFNRGEC
notes: also called clone 7
Ranking FACS data [1]: 4 rank | Competition Binding 1st exp. (rank) [2]: 7 rank | Competition Binding 2nd exp. (rank) [3]: > 4 rank

B8: Chi mAb (Tyr) (antibody, human IgG4 S228P, kappa, V domains shown)
VH: QVQLQQSGSELVRPGASVKLSCKASGYTFTTYWMHWVRQRPGQGLEWIGNIYPGTGGSNFDEKFKNRTSLTVDTSSTTAYMHLASLTSEDSAVYYCTRWTTGTGAYWGQGTTVTVSS
VL: DIVMTQSPSSLTVTAGEKVTMSCKSSQSLLDSGNQKNFLTWYQQKPGQPPKLLIFWASTRESGVPDRFTGSGSVTDFTLTISSVQAEDLAVYYCQNDYSYPYTFGQGTKVEIKR
notes: also called BAP049-chi-Y; Chi (Tyr)
IC50 (read off the curve) [4]: ~0.9 mg/L

B9: Mu mAb (antibody, V domains shown)
VH: QVQLQQSGSELVRPGASVKLSCKASGYTFTTYWMHWVRQRPGQGLEWIGNIYPGTGGSNFDEKFKNRTSLTVDTSSTTAYMHLASLTSEDSAVYYCTRWTTGTGAYWGQGTLVTVSA
VL: DIVMTQSPSSLTVTAGEKVTMSCKSSQSLLDSGNQKNFLTWYQQKPGQPPKLLIFWASTRESGVPDRFTGSGSVTDFTLTISSVQAEDLAVYYCQNDYSYPCTFGGGTKLEIK
notes: Unlabelled when its concentration is varied; also called murine anti-PD-1 mAb BAP049; Mu mAb control
IC50 (read off the curve) [4]: ~0.7 mg/L

B10: BAP049-hum02 (antibody, human IgG4 S228P, kappa, V domains shown)
VH: EVQLVQSGAEVKKPGESLRISCKGSGYTFTTYWMHWVRQATGQGLEWMGNIYPGTGGSNFDEKFKNRVTITADKSTSTAYMELSSLRSEDTAVYYCTRWTTGTGAYWGQGTTVTVSS
VL: DIQMTQSPSSLSASVGDRVTITCKSSQSLLDSGNQKNFLTWYQQKPGQAPRLLIYWASTRESGIPPRFSGSGYGTDFTLTINNIESEDAAYYFCQNDYSYPYTFGQGTKVEIKR
notes: also called clone 2
Ranking FACS data [1]: 6 rank | Competition Binding 1st exp. (rank) [2]: 3 rank | Competition Binding 2nd exp. (rank) [3]: 2 rank

B11: BAP049-hum12 (antibody, human IgG4 S228P, kappa, V domains shown)
VH: EVQLVQSGAEVKKPGESLRISCKGSGYTFTTYWMHWVRQATGQGLEWMGNIYPGTGGSNFDEKFKNRVTITADKSTSTAYMELSSLRSEDTAVYYCTRWTTGTGAYWGQGTTVTVSS
VL: DIQMTQSPSSLSASVGDRVTITCKSSQSLLDSGNQKNFLTWYLQKPGQSPQLLIYWASTRESGVPSRFSGSGSGTDFTFTISSLEAEDAATYYCQNDYSYPYTFGQGTKVEIKR
notes: also called clone 12
Ranking FACS data [1]: 3 rank | Competition Binding 1st exp. (rank) [2]: 8 rank | Competition Binding 2nd exp. (rank) [3]: 16 rank

B12: BAP049-hum16 (antibody, human IgG4 S228P, kappa, V domains shown)
VH: EVQLVQSGAEVKKPGESLRISCKGSGYTFTTYWMHWVRQAPGQGLEWMGNIYPGTGGSNFDEKFKNRFTISRDNSKNTLYLQMNSLRAEDTAVYYCTRWTTGTGAYWGQGTTVTVSS
VL: EIVLTQSPDFQSVTPKEKVTITCKSSQSLLDSGNQKNFLTWYQQKPGQAPRLLIYWASTRESGVPSRFSGSGSGTDFTFTISSLEAEDAATYYCQNDYSYPYTFGQGTKVEIKR
notes: also called clone 16
Ranking FACS data [1]: 15 rank | Competition Binding 1st exp. (rank) [2]: 16 rank | Competition Binding 2nd exp. (rank) [3]: 15 rank

B13: BAP049-hum03 (antibody, human IgG4 S228P, kappa, V domains shown)
VH: EVQLVQSGAEVKKPGESLRISCKGSGYTFTTYWMHWIRQSPSRGLEWLGNIYPGTGGSNFDEKFKNRFTISRDNSKNTLYLQMNSLRAEDTAVYYCTRWTTGTGAYWGQGTTVTVSS
VL: DIQMTQSPSSLSASVGDRVTITCKSSQSLLDSGNQKNFLTWYQQKPGQAPRLLIYWASTRESGIPPRFSGSGYGTDFTLTINNIESEDAAYYFCQNDYSYPYTFGQGTKVEIKR
notes: also called clone 3
Ranking FACS data [1]: 7 rank | Competition Binding 1st exp. (rank) [2]: 8 rank | Competition Binding 2nd exp. (rank) [3]: 14 rank

B14: BAP049-hum14 (antibody, human IgG4 S228P, kappa)
heavy chain: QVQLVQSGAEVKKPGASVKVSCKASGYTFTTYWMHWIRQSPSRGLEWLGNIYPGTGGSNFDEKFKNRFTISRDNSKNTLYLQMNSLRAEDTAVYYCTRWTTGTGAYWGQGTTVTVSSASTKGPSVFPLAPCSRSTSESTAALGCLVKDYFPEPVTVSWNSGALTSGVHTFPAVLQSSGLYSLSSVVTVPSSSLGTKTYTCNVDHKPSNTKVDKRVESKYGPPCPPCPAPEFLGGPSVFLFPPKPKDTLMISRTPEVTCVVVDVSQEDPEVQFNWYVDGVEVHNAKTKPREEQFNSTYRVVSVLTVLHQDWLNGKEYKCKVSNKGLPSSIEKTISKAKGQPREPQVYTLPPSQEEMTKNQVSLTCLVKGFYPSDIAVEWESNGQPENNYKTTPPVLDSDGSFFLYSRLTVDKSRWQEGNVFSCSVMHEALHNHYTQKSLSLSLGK
light chain: EIVLTQSPATLSLSPGERATLSCKSSQSLLDSGNQKNFLTWYQQKPGQAPRLLIYWASTRESGVPSRFSGSGSGTDFTFTISSLEAEDAATYYCQNDYSYPYTFGQGTKVEIKRTVAAPSVFIFPPSDEQLKSGTASVVCLLNNFYPREAKVQWKVDNALQSGNSQESVTEQDSKDSTYSLSSTLTLSKADYEKHKVYACEVTHQGLSSPVTKSFNRGEC
notes: also called clone 14
Ranking FACS data [1]: 16 rank | Competition Binding 1st exp. (rank) [2]: 7 rank | Competition Binding 2nd exp. (rank) [3]: 15 rank

B15: BAP049-hum08 (antibody, human IgG4 S228P, kappa)
heavy: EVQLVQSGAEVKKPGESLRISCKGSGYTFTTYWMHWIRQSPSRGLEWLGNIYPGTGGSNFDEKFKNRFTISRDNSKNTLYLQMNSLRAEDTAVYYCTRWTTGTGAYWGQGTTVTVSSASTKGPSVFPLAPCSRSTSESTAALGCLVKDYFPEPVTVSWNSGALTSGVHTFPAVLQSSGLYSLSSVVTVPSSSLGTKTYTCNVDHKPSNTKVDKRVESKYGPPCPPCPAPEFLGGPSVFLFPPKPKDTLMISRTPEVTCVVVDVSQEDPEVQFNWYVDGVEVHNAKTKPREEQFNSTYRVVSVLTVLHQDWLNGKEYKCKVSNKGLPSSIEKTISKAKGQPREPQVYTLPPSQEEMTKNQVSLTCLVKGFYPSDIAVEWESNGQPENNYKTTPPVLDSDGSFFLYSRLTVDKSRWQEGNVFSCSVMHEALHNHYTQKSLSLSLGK
light: EIVLTQSPDFQSVTPKEKVTITCKSSQSLLDSGNQKNFLTWYQQKPGQAPRLLIYWASTRESGVPSRFSGSGSGTDFTFTISSLEAEDAATYYCQNDYSYPYTFGQGTKVEIKRTVAAPSVFIFPPSDEQLKSGTASVVCLLNNFYPREAKVQWKVDNALQSGNSQESVTEQDSKDSTYSLSSTLTLSKADYEKHKVYACEVTHQGLSSPVTKSFNRGEC
notes: Humanized mAb
Ranking FACS data [1]: 7 rank | Competition Binding 1st exp. (rank) [2]: 7 rank | Competition Binding 2nd exp. (rank) [3]: 4 rank

B16: BAP049-hum04 (antibody, human IgG4 S228P, kappa, V domains shown)
VH: EVQLVQSGAEVKKPGESLRISCKGSGYTFTTYWMHWIRQSPSRGLEWLGNIYPGTGGSNFDEKFKNRFTISRDNSKNTLYLQMNSLRAEDTAVYYCTRWTTGTGAYWGQGTTVTVSS
VL: EIVLTQSPATLSLSPGERATLSCKSSQSLLDSGNQKNFLTWYQQKPGKAPKLLIYWASTRESGVPSRFSGSGSGTDFTFTISSLQPEDIATYYCQNDYSYPYTFGQGTKVEIKR
notes: also called clone 4
Ranking FACS data [1]: 14 rank | Competition Binding 1st exp. (rank) [2]: 15 rank | Competition Binding 2nd exp. (rank) [3]: 15 rank

B17: BAP049-hum13 (antibody, human IgG4 S228P, kappa)
heavy chain: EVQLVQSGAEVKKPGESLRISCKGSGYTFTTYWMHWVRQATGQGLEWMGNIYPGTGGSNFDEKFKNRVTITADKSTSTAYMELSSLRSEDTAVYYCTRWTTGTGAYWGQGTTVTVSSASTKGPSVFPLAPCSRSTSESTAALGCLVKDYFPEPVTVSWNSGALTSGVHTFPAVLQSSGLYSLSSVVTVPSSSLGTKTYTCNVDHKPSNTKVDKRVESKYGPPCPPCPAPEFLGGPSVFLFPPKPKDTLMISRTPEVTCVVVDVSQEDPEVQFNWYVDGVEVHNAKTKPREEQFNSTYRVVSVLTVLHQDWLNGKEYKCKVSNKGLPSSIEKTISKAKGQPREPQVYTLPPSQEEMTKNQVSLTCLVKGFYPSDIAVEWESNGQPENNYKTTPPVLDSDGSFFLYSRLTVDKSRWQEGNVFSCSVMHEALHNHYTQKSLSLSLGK
light chain: DVVMTQSPLSLPVTLGQPASISCKSSQSLLDSGNQKNFLTWYQQKPGKAPKLLIYWASTRESGVPSRFSGSGSGTDFTFTISSLEAEDAATYYCQNDYSYPYTFGQGTKVEIKRTVAAPSVFIFPPSDEQLKSGTASVVCLLNNFYPREAKVQWKVDNALQSGNSQESVTEQDSKDSTYSLSSTLTLSKADYEKHKVYACEVTHQGLSSPVTKSFNRGEC
notes: also called clone 13
Ranking FACS data [1]: 6 rank | Competition Binding 1st exp. (rank) [2]: 1 rank | Competition Binding 2nd exp. (rank) [3]: 1 rank

Source: US20180371093A1 (Novartis, published 2018)
